Experimental findings from patent US20190316211A1, “ONCOGENIC ALTERNATIVE SPLICING SWITCH OF PACE4 IN CANCER” (SOCIETE DE COMMERCIALISATION DES PRODUITS DE LA RECHERCHE …, priority 2016, published 2019) are described below.

One assay concerns the target T1, recombinant PACE4 (Homo sapiens, UniProt P29122).
T1 construct: made in house; host or cells: S2 cells
T1 sequence (P29122 150-969): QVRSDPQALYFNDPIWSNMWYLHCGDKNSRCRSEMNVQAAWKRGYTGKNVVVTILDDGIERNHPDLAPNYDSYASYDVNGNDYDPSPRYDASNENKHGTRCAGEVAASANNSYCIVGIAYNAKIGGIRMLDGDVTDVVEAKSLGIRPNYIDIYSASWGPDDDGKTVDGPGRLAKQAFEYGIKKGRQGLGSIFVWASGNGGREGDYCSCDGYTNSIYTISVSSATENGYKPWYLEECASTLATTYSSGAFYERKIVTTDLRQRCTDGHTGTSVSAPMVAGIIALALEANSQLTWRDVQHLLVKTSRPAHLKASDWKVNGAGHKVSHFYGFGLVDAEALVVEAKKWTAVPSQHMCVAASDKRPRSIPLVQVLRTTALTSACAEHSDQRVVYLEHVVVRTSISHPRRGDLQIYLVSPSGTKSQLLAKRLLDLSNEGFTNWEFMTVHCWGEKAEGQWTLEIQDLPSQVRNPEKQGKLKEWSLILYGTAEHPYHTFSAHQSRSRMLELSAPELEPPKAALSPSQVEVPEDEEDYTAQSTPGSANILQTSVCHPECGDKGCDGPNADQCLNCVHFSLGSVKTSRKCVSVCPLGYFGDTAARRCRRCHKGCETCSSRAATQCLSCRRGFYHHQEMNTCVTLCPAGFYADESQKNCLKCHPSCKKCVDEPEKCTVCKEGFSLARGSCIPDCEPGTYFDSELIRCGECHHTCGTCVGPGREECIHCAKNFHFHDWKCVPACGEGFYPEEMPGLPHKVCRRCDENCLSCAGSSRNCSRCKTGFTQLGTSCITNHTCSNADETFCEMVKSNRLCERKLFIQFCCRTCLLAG
Briefly: GDF-15 spanning peptide cleavage monitored by HPLC. It is filed as biochemical. The settings on record: 37° C., 1 h, pH 7.5. The text has this:
(§1) GDF-15 is known to supports both the proliferation and clonogenic potential of LNCaP cells, which is also in line with the observed phenotypes for both PACE4 knockdown and overexpressing cells. This protein is synthetized as a 35 kDa proprotein which requires a PC-based cleavage at the […]^196↓, site to generate a ˜17 kDa C-terminal mature form that associates as a disulfide-linked dimer further secreted in the medium. GDF-15 is only detected in LNCaP cells whereas DU145 express very low levels in both medium and cell lysates (FIGS. 10C and D). […]
(§2) GDF-15 peptide (40 μg) was incubated at 37° C. with recombinant PACE4 or soluble furin (16U) in 100 mM Hepes buffer containing 1 mM CaCl2, 1 mM 3-mercaptoethanol, and 1.8 mg/mL BSA, pH 7.5 (total sample volume: 300 μl) over a period of 1 h. […] After incubation, the reactions were immediately analyzed by the analytical HPLC (Agilent Technologies, 1100 series with a diode array detector and a fraction collector; injection volume: 95 μl, gradient: 2 to 25% […] in 50 min; [A]0.1% aq TFA and [B] acetonitrile+0.1% aq TFA; column: an Agilent Eclipse XDB C18 column (5 μm, 4.6×250 mm). The collected fractions were analysed by SELDI-TOF mass spectrometer (Bio-Rad Laboratories) to identify the cleavage product.

In the next assay the target is T2, soluble furin (Homo sapiens, UniProt P09958).
T2 construct: recombinant PACE4 or soluble furin (16U); made in house; host or cells: S2 cells (said of recombinant PCs in general)
Put plainly: GDF-15 spanning peptide cleavage monitored by HPLC. It counts as biochemical. To be noted: 37° C., 1 h, pH 7.5.
Excerpt: as §1, §2

For another assay, the target named is T3, PACE4-FL (Homo sapiens, UniProt P29122).
T3 construct: V5 (C); His (C); expressed in transfected cells
T3 sequence (P29122 150-969): T1 sequence (P29122 150-969)
Put plainly: PACE4 secretion assay, displacement by heparin. It counts as cell-based. The settings on record: increasing doses. The text has this: (§3) The first major distinction observed was the lack of secretion of PACE4-altCT accompanied with intracellular retention when compared to PACE4-FL which was efficiently secreted in the medium (FIGS. 7B and C). This observation correlated with the distinct cell distribution observed for each isoforms in IHC, i.e. the PACE4-FL being more accumulated at the membrane/extracellular surface compared to PACE4-altCT being restricted to the vesicular intracellular compartment (FIG. 3D). PACE4, at least PACE4-FL, is known to be secreted in the medium and to be retained in the extracellular matrix through the binding to heparan sulfate proteoglycans by its cysteine-rich domain and to be displaceable by heparin.
(§4) For PACE4 secretion assays, cells were plated at equal densities in 6-well plates for 24 h in complete medium. 24 h later, the medium was replaced by the minimal volume required of fresh culture medium (600 μL without FBS) and the cells were either allowed to secrete for the indicated time (for secretion kinetics) or (for inhibitor treatments) allowed to secrete for an additional 24 h in the presence of the indicated concentrations of agents (heparin (Sandoz, Niirnberg, Germany), 2-bromopalmitate (Sigma Aldrich), FTI-277 (Sigma Aldrich), GGTI-2133 (Santa Cruz Biotechnology Inc., Santa Cruz, Calif., USA)

The target of the next assay is T4, PACE4-altCT (Homo sapiens, UniProt P29122).
T4 construct: V5 (C); His (C); expressed in transfected cells
T4 sequence (P29122 with tags, fused parts or gaps limits assumed): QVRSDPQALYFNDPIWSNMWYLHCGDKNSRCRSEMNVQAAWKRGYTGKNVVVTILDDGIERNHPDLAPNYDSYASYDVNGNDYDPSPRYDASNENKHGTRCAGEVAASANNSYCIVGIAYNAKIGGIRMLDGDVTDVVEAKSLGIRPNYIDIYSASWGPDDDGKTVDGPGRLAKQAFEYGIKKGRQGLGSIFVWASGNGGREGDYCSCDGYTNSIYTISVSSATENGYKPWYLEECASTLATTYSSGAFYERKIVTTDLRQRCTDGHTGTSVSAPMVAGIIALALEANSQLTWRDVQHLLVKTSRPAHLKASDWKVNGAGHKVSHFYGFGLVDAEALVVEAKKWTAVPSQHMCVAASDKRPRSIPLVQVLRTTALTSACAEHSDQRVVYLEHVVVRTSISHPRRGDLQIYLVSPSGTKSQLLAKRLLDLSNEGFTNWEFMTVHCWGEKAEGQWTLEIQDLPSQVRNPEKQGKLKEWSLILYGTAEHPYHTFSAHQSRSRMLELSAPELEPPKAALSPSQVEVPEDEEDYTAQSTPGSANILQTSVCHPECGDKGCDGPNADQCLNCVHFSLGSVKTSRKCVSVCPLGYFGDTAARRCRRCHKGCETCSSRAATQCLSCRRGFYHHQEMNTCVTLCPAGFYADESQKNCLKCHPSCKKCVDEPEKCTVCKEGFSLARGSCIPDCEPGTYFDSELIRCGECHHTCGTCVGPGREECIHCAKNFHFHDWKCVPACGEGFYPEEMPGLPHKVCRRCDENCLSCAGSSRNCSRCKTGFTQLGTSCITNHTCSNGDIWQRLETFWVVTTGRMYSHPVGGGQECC
Briefly: PACE4 secretion assay, displacement by heparin. It counts as cell-based. The settings on record: increasing doses.
Excerpt: as §3, §4

T2 sequence (P09958 108-715 limits assumed): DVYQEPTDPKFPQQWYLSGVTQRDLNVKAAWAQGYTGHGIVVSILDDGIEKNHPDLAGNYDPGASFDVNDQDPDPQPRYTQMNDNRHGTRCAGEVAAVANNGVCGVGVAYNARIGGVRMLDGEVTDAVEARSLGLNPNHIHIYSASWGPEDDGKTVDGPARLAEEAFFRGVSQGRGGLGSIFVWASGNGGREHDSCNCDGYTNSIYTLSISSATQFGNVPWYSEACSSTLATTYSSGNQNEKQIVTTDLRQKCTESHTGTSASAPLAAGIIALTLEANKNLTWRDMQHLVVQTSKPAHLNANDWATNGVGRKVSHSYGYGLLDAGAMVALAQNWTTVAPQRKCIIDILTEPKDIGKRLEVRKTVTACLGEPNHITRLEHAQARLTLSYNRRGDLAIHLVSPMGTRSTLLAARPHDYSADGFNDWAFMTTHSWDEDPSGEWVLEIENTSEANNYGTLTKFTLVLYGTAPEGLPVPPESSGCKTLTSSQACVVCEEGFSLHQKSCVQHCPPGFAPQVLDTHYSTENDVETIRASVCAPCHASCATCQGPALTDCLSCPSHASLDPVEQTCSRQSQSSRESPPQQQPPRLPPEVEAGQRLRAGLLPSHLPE

Consider “QAARGRRRARARNG (Ac-QAARGRRRARARNG-NH2) [synthetic N-acetylated peptide spanning the GDF-15 cleavage site]”, for which the “cleavage of peptide at the QAARGRRRAR site” value in the assay with recombinant PACE4 and in the assay with soluble furin was “cleaved by both PCs” each time.

For the substance heparin, the “displacement into the medium by heparin” value was “increased amount in the medium” on PACE4-FL and “could not be displaced” on PACE4-altCT.
